Data as given in patent CN117624362A.

B1: 鼠抗人CD20[ZXCloneHCD20-07] (antibody, V domains shown)
VH: QVQLQQPGAELVKPGASVKMSCKASGYTFTSYNIHWVKQTPGQGLEWIGAIYPGNGDTSHNQKFKGKATLTADRSSSTAYMQFSSLTSEDSAVYYCARSRRYDGDWSFDVWGAGTTVTVSS
VL: QIVLTQSPAIMSASPGEKVTMTCSASSFITYMHWFQQKSGTSPKRWIYDTSKLASGVPARFSGSGSGTSYSLTISSMEAEDAATYYCQQWNSNPPTFGGGTKLEIKR

Target: T1, 人CD20 (human) (UniProt P11836)
T1 sequence (looked up): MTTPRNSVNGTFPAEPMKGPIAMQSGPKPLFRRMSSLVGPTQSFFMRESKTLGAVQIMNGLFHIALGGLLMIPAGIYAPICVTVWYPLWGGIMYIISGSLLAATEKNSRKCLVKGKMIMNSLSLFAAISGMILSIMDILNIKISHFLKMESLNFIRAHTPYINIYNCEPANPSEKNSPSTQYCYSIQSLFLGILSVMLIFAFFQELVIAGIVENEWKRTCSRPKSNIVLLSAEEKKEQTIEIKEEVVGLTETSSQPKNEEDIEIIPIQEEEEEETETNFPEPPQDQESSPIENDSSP
Experiment: flow cytometry titration on lysed human blood cells, dilutions 1:100 to 1:96000 of 1 mg/mL antibody, goat anti-mouse IgG-PE detection

亲和力(kd)	Molecule
195 (1mg/mL)	商品化鼠抗人CD20[2H7]抗体 (Biolegend) (antibody)
190 (1mg/mL)	B1
